Experimental data as given in IntAct's records for PubMed 31515488.
Blank lines part the entries; values can stand above or below the substance they belong to.

Key:
ntaq1_human NTAQ1 = ntaq1_human NTAQ1 (UniProt Q96HA8)
cof2_human CFL2 = cof2_human CFL2 (UniProt Q9Y281)
dest_human DSTN = biological target: T1, dest_human DSTN (UniProt P60981)
T1 sequence: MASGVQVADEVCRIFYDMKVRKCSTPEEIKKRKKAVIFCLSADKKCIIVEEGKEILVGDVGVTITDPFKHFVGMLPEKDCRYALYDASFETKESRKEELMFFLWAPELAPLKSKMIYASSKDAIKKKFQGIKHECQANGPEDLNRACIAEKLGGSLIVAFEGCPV

ctbp2_human CTBP2 = ctbp2_human CTBP2 (UniProt P56545)
hxb5_human HOXB5 = hxb5_human HOXB5 (UniProt P09067)
cry2_human CRY2 = biological target: T2, cry2_human CRY2 (UniProt Q49AN0)
T2 sequence: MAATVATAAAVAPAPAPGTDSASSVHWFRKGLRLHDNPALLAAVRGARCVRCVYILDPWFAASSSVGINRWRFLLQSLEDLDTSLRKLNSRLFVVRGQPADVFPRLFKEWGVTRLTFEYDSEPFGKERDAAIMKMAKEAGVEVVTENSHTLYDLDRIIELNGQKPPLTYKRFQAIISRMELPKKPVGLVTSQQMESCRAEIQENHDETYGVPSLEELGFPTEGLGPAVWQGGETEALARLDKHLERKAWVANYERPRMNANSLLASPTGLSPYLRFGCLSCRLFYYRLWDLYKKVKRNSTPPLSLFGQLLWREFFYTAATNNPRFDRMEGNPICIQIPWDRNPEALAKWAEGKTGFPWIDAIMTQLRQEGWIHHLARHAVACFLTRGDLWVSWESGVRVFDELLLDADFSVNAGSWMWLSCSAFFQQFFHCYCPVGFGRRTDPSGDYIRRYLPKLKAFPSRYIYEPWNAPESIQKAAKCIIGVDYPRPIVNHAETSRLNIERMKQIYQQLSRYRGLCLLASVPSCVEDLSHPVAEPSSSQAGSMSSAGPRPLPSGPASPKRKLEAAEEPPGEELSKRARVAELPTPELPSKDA

aapk1_human PRKAA1 = aapk1_human PRKAA1 (UniProt Q13131)
otx1_human OTX1 = otx1_human OTX1 (UniProt P32242)
dpyl3_human DPYSL3 = dpyl3_human DPYSL3 (UniProt Q14195)
gors2_human GORASP2 = gors2_human GORASP2 (UniProt Q9H8Y8)
dpyl5_human DPYSL5 = biological target: T3, dpyl5_human DPYSL5 (UniProt Q9BPU6)
T3 sequence: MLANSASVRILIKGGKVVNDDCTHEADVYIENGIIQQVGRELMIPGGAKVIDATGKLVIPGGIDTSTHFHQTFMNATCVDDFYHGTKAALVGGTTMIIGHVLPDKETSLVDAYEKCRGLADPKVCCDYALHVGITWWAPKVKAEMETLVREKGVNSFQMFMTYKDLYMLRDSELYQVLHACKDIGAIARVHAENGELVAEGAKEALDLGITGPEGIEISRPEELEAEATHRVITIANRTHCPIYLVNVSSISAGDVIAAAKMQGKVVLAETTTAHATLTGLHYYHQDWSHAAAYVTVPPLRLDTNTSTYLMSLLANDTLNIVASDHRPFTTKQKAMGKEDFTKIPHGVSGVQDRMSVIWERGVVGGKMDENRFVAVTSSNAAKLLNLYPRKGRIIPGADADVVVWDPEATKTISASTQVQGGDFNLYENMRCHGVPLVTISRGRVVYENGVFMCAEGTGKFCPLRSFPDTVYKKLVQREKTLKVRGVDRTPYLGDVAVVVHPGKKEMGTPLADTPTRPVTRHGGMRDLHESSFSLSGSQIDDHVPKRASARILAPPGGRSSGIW

ubql1_human UBQLN1 = ubql1_human UBQLN1 (UniProt Q9UMX0)
nasp_human NASP = nasp_human NASP (UniProt P49321)
spopl_human SPOPL = spopl_human SPOPL (UniProt Q6IQ16)
nup50_human NUP50 = nup50_human NUP50 (UniProt Q9UKX7)
an32b_human ANP32B = an32b_human ANP32B (UniProt Q92688)
traf2_human TRAF2 = traf2_human TRAF2 (UniProt Q12933)
fhl3_human FHL3 = fhl3_human FHL3 (UniProt Q13643)
lhx8_human LHX8 = lhx8_human LHX8 (UniProt Q68G74)
fxl18_human FBXL18 = fxl18_human FBXL18 (UniProt Q96ME1)
hnrl1_human HNRNPUL1 = hnrl1_human HNRNPUL1 (UniProt Q9BUJ2)
erep1_human ENTREP1 = erep1_human ENTREP1 (UniProt Q15884)
pdli7_human PDLIM7 = pdli7_human PDLIM7 (UniProt Q9NR12)
thap1_human THAP1 = thap1_human THAP1 (UniProt Q9NVV9)
kcc2d_human CAMK2D = kcc2d_human CAMK2D (UniProt Q13557)
mdfi_human MDFI = mdfi_human MDFI (UniProt Q99750)
rtraf_human RTRAF = rtraf_human RTRAF (UniProt Q9Y224)
zbt14_human ZBTB14 = biological target: T4, zbt14_human ZBTB14 (UniProt O43829)
T4 sequence: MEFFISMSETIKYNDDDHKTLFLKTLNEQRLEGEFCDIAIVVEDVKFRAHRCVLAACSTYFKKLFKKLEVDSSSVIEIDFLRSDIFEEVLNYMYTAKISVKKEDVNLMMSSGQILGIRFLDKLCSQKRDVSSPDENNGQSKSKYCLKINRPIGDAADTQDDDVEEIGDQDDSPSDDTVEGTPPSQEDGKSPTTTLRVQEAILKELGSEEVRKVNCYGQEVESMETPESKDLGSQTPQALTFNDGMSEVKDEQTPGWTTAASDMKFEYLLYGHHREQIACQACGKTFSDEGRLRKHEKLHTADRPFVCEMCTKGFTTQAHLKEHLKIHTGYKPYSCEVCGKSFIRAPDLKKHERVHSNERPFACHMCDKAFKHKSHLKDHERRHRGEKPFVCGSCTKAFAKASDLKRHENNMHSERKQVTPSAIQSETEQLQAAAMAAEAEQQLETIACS

cxcl9_human CXCL9 = biological target: T5, cxcl9_human CXCL9 (UniProt Q07325)
T5 sequence: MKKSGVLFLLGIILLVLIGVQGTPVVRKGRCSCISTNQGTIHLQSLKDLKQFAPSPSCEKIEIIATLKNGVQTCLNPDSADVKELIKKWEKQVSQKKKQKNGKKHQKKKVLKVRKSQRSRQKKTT

tmm79_human TMEM79 = biological target: T6, tmm79_human TMEM79 (UniProt Q9BSE2)
T6 sequence: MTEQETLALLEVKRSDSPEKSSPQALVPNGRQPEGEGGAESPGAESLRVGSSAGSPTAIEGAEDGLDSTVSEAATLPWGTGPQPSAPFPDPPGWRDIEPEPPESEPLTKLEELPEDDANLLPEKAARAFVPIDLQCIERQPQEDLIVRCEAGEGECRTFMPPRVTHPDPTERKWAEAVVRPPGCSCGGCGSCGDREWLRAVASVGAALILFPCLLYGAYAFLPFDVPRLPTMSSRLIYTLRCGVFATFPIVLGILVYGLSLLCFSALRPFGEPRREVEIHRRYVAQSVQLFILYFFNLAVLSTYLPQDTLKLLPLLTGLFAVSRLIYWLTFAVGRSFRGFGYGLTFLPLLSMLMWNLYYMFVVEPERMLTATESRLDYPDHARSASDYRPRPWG

efs_human EFS = efs_human EFS (UniProt O43281)
fund1_human FUNDC1 = fund1_human FUNDC1 (UniProt Q8IVP5)
zn446_human ZNF446 [1] = biological target: zn446_human ZNF446 (UniProt Q9NWS9)
rbtn2_human LMO2 = rbtn2_human LMO2 (UniProt P25791)
trim1_human MID2 [2] = biological target: trim1_human MID2 (UniProt Q9UJV3)
dzip3_human DZIP3 = dzip3_human DZIP3 (UniProt Q86Y13)
zn446_human ZNF446 [3] = biological target: zn446_human ZNF446 (UniProt Q9NWS9); remark: listed apart in the source
zn446_human ZNF446 [4] = biological target: zn446_human ZNF446 (UniProt Q9NWS9); remark: listed apart in the source
kr101_human KRTAP10-1 = kr101_human KRTAP10-1 (UniProt P60331)
mtus2_human MTUS2 = mtus2_human MTUS2 (UniProt Q5JR59)
trim1_human MID2 [5] = biological target: trim1_human MID2 (UniProt Q9UJV3); remark: listed apart in the source

effect of a mutation on the interaction (ntaq1_human NTAQ1): disrupting interaction strength
effect of a mutation on the interaction (cof2_human CFL2): with no effect
effect of a mutation on the interaction (dest_human DSTN): disrupting interaction strength
Substance: Actin, cytoplasmic 1 (Homo sapiens) (from UniProt P60709) E364K

effect of a mutation on the interaction (ctbp2_human CTBP2): with no effect
effect of a mutation on the interaction (hxb5_human HOXB5): with no effect
effect of a mutation on the interaction (cry2_human CRY2): with no effect
effect of a mutation on the interaction (aapk1_human PRKAA1): with no effect
Substance: C-terminal-binding protein 1 (Homo sapiens) (from UniProt Q13363) A436T

effect of a mutation on the interaction (otx1_human OTX1): with no effect
Substance: Cartilage oligomeric matrix protein (Homo sapiens), P49747 N386D

effect of a mutation on the interaction (dpyl3_human DPYSL3): with no effect
effect of a mutation on the interaction (gors2_human GORASP2): with no effect
effect of a mutation on the interaction (dpyl5_human DPYSL5): with no effect
Substance: Dihydropyrimidinase-related protein 2 (Homo sapiens) (from UniProt Q16555) A267S

effect of a mutation on the interaction (ubql1_human UBQLN1): with no effect
Substance: Frizzled-7 (Homo sapiens) (from UniProt O75084) P285S

effect of a mutation on the interaction (nasp_human NASP): with no effect
Substance: Histone H3.1 (Homo sapiens) (from UniProt P68431) A128G

effect of a mutation on the interaction (spopl_human SPOPL): with no effect
effect of a mutation on the interaction (nup50_human NUP50): with no effect
effect of a mutation on the interaction (an32b_human ANP32B): with no effect
Substance: Importin subunit alpha-6 (Homo sapiens), O15131 F48L

effect of a mutation on the interaction (traf2_human TRAF2): disrupting interaction strength
effect of a mutation on the interaction (fhl3_human FHL3): disrupting interaction strength
effect of a mutation on the interaction (lhx8_human LHX8): disrupting interaction strength
Substance: Isoform 1 of Krueppel-like factor 3 (Homo sapiens), P57682-1 C322F

effect of a mutation on the interaction (fxl18_human FBXL18): with no effect
effect of a mutation on the interaction (hnrl1_human HNRNPUL1): with no effect
effect of a mutation on the interaction (erep1_human ENTREP1): with no effect
effect of a mutation on the interaction (pdli7_human PDLIM7): with no effect
Substance: Isoform 1 of NEDD4-like E3 ubiquitin-protein ligase WWP2 (Homo sapiens), O00308-1 V717M

effect of a mutation on the interaction (thap1_human THAP1): with no effect
effect of a mutation on the interaction (kcc2d_human CAMK2D): with no effect
Substance: Large ribosomal subunit protein uL11m (Homo sapiens) (from UniProt Q9Y3B7) R142C

effect of a mutation on the interaction (mdfi_human MDFI): with no effect
Substance: Nuclear transition protein 2 (Homo sapiens), Q05952 R131W

effect of a mutation on the interaction (rtraf_human RTRAF): with no effect
Substance: Protein FAM98A (Homo sapiens), Q8NCA5 S283G

effect of a mutation on the interaction (zbt14_human ZBTB14): with no effect
Substance: Small ribosomal subunit protein eS7 (Homo sapiens) (from UniProt P62081) R106Q

effect of a mutation on the interaction (cxcl9_human CXCL9): with no effect
effect of a mutation on the interaction (tmm79_human TMEM79): with no effect
Substance: Surfactant protein C (Homo sapiens) (from UniProt P11686) R167Q

effect of a mutation on the interaction (efs_human EFS): with no effect
Substance: Tyrosine-protein kinase Fyn (Homo sapiens), P06241-3 V410M

effect of a mutation on the interaction (fund1_human FUNDC1): with no effect
Substance: Tyrosine-protein kinase Yes (Homo sapiens), P07947 V52L

effect of a mutation on the interaction (zn446_human ZNF446 [1]): with no effect
Substance: Zinc finger and SCAN domain-containing protein 16 (Homo sapiens), Q9H4T2 R137Q

effect of a mutation on the interaction (rbtn2_human LMO2): with no effect
effect of a mutation on the interaction (trim1_human MID2 [2]): with no effect
effect of a mutation on the interaction (dzip3_human DZIP3): with no effect
effect of a mutation on the interaction (zn446_human ZNF446 [3]): with no effect
Substance: Zinc finger protein 24 (Homo sapiens), P17028 T85M

effect of a mutation on the interaction (zn446_human ZNF446 [4]): with no effect
Substance: Zinc finger protein 397 (Homo sapiens), Q8NF99 P169S

effect of a mutation on the interaction (kr101_human KRTAP10-1): with no effect
Substance: Zinc finger protein 559 (Homo sapiens), Q9BR84 L6W

effect of a mutation on the interaction (mtus2_human MTUS2): with no effect
effect of a mutation on the interaction (trim1_human MID2 [5]): with no effect
Substance: Zinc finger protein 785 (Homo sapiens), A8K8V0 R212C
